These results are taken from article PMC8556680.

For series [1], the target named is T1, GST-ZNF410 ZF1-ZF5 (Homo sapiens, UniProt Q86VK4 217-366).
T1 sequence: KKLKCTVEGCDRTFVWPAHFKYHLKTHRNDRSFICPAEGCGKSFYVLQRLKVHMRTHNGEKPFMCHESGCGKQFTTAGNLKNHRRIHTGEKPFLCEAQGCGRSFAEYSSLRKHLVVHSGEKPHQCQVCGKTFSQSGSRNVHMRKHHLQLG
Nature of the series: fluorescence polarization.

For series [2], the target named is T1, GST-ZNF410 ZF1-ZF5. Nature of the series: fluorescence polarization. The source holds these as a separate data set.

B1: 17-bp consensus oligo (FAM) (dsDNA)
DNA 1: CACATCCCATAATAATG
DNA 2: CATTATTATGGGATGTG
In series [1], B1 yielded a dissociation constant Kd of 22 nM.

B2: negative control oligo (FAM) (dsDNA)
DNA 1: TCCACTGCCAGGACCTTT
DNA 2: AAAAGGTCCTGGCAGTGG
Take B2: the binding result in series [2] is “no binding”.
